Measured values taken from PMC314469, “Protein Interaction Networks by Proteome Peptide Scanning” (PLoS Biology, 2004).

Key:
Assay in all cases: SPOT array
[1] = biological target: T1, Boi1 SH3 (BOI1_YEAST), P38041
T1 chain: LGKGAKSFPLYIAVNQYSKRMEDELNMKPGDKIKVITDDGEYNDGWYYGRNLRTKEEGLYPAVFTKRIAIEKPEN

[2] = biological target: T2, Boi2 SH3 (BOI2_YEAST), P39969
T2 chain: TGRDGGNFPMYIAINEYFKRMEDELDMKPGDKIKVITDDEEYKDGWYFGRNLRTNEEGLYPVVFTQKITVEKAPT

[3] = biological target: T3, Rvs167 SH3 (RV167_YEAST), P39743
T3 chain: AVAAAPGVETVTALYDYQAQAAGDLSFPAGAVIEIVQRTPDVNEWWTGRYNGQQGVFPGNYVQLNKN

[4] = biological target: T4, Yfr024 SH3 (LSB3_YEAST), P43603
T4 chain: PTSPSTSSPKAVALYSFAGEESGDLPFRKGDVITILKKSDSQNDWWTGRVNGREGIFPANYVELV

[5] = biological target: T5, Yhr016c SH3 (YSC84_YEAST), P32793
T5 chain: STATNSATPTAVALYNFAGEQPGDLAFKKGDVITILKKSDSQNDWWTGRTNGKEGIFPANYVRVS

Row | Binder | normalised SPOT signal, Boehringer light units (BLU); mean over the file's lines of this peptide [1] | normalised SPOT signal, Boehringer light units (BLU); mean over the file's lines of this peptide [2] | normalised SPOT signal, Boehringer light units (BLU); mean over the file's lines of this peptide [3] | normalised SPOT signal, Boehringer light units (BLU); mean over the file's lines of this peptide [4] | normalised SPOT signal, Boehringer light units (BLU); mean over the file's lines of this peptide [5]
1 | WKPPDLPIRLRKRP [YIL156W 502-515] | 7340 | 2000 | 12900 | 47500 | 24500
2 | YQYPQTPSKVDISI [YEL040W 243-256] | 36.3 | 36.3 | 74.2 | 141 | 73.9
3 | YKIPVVPPRETYFA [YGR166W 507-520] | 137 | 26.2 | 385 | 3320 | 1750
4 | VVSPSHPFKQLQKI [YIL146C 146-159] | 59.7 | 50.3 | 55.9 | 70.5 | 173
5 | YDFPTVPARKFVQP [YNR006W 578-591] | 1480 | 8.3 | 254 | 804 | 258
6 | WISPDTPLKFPLNE [YJL093C 636-649] | 85.4 | 227 | 168 | 5890 | 364
7 | YILPKNPFRVPSEM [YGR293C 125-138] | 8450 | 384 | 198 | 808 | 124
8 | YPSPAQPPKSPLLN [YER114C 448-461] | 92.5 | 36.2 | 18.1 | 526 | 22.5
9 | VVIPPVPSRYSDER [YDL117W 95-108] | 50.6 | 0 | 1860 | 4480 | 3610
10 | YRYPQTPMRLEIAV [YLR213C 295-308] | 208 | 146 | 90.7 | 1060 | 365
11 | YGPPTDPRKQKQAK [YDR001C 36-49] | 156 | 38.1 | 63.3 | 172 | 209
12 | YSLPMHPGRWWVHT [YHR072W 222-235] | 79.5 | 158 | 78.1 | 712 | 308
13 | WNLPWSPFKITTIM [YDR211W 95-108] | 143 | 2670 | 870 | 6480 | 1040
14 | VYVPINPPKELDQR [YJL060W 164-177] | 32.4 | 17.4 | 17.1 | 298 | 132
15 | WSYPYEPLRVLQVG [YDR415C 17-30] | 326 | 3020 | 1090 | 2320 | 802
16 | YLDPFHPKRKFIGV [YNL005C 96-109] | 178 | 58.3 | 57 | 88.7 | 34.3
17 | WNDPSDPTKGFQYL [YMR207C 1538-1551] | 30.3 | 47.1 | 48.9 | 1300 | 25.5
18 | YMQPIIPGKTESFE [YDR390C 151-164] | 62.4 | 259 | 498 | 596 | 272
19 | YSNPQTPLRSLAGL [YDR420W 1404-1417] | 80.5 | 104 | 260 | 2680 | 1600
20 | VVLPKFPDKSFVLD [YLR215C 239-252] | 94.3 | 34 | 22.6 | 533 | 168
21 | YRIPDDPRKSQNKS [YKL178C 366-379] | 95.9 | 71.9 | 21.3 | 351 | 80.5
22 | VYSPIQPRRRKDSS [YLR228C 72-85] | 571 | 1180 | 580 | 13300 | 2250
